The assay deals with T1, wild-type Met1-linked di-ubiquitin (UniProt P0CG48 1-76; P0CG48 1-76).
T1 construct: ubiquitin, first moiety of the linear fusion (residues 1-76 of the di-ubiquitin); ubiquitin, second moiety of the linear fusion (residues 77-152 of the di-ubiquitin); In the crystal each di-ubiquitin bridges two SnOTU molecules: residues 1-76 lie in the S1' site of one SnOTU and residues 77-152 in the S1 site of the other; also called linear di-ubiquitin; M1-linked di-ubiquitin; source: expressed …
Put plainly: crystal structure; catalytic inactive SnOTU 1-255 and linear di-ubiquitin mixed in a 1:1.1 ratio; sitting drop vapor diffusion, 4 °C; 0.25 M magnesium formate, 20% w/v PEG 3350, 0.02 M EDTA disodium salt. The note with it: both partners purified.

B1: catalytically inactivated (C82A) fragment SnOTU 1-255 (domain or fragment)
chain: MSLPVKERPDAIYTFEGKTYENTSFSKTGIPIVGQPLKMEAYVHKEYTHVTSLEGKRFKSQLEEAAKIYGEQLHEIQGDGNALTTAFATSFLYLLNGNATLIATFDNILIGLDAHKNIPPVRQTIEKLKVKNDLELKQILASNETMFAFSSVIRHLARQKLPELGEPFSLLIDEMVPEEDGKEIEIACIGGLCQLLNICADVIYLRKDYDTFKIERYPNETGKPDLVILRKAAHFLSIILDSKKSIEERTNELGK
notes: resolved from residues 2 to 242 in PDB 8CMR; Amplified from S. negevensis genomic DNA (DSM No.27360), cloned into pOPIN-S; source: E. coli Rosetta (DE3) pLysS, purified (HisTrap FF, tag removal, SEC); not shown: His6, N-terminal, cleaved; Smt3, N-terminal, cleaved
In the case of B1, the binding result is given as “binds”.

The values above are taken from paper PMC10643670, “Functional and structural diversity in deubiquitinases of the Chlamydia-like bacterium Simkania negevensis” (Nature Communications, 2023).
